Consider 1 substance from article PMC2805770.

For this data set the following is noted: phosphorylation at S656.

For the substance synapsin-I: S656A, the localisation_or_trafficking result is “changes”.
